US20160237160A1 (Bayer, published 2016)

What was measured:
[1] = molecular target: TPP-2683 (hTNFRSF12Aaa28-80-R56P-hIgG1-Fc) (human); assay: ELISA, TWEAKR-Fc coated 62 ng/ml, biotin-IgG titrated; + means IC50 1 to 150 pM;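 further: biotinylated IgG binding to immobilized TWEAKR-Fc muteins, detected with Streptavidin-HRP and Amplex Red, IC50 derived from fitted dose-response curves of twofold serial dilutions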
Description: (§1) To collect dose-response data, the different TWEAKR-Fc muteins were coated with a low concentration (62 ng/ml) in a 384-well Maxisorb ELISA plate and a serial 2fold dilution of biotinylated IgG starting with a concentration of 100 nM was used as soluble binding partner. Detection was done with Streptavidin-HRP and Amplex Red.
(§2) The dose-response data were fitted and IC50s determined.

[2] = molecular target: TPP-1986 (hTNFRSF12Aaa28-80-T33Q-hIgG1-Fc) (human); assay: as above
Description: as §1, §2

[3] = molecular target: TPP-1987 (hTNFRSF12Aaa28-80-S40R-hIgG1-Fc) (human); assay: as above
Description: as §1, §2

[4] = molecular target: TPP-1988 (hTNFRSF12Aaa28-80-M50A-hIgG1-Fc) (human); assay: as above
Description: as §1, §2

[5] = molecular target: TPP-1989 (hTNFRSF12Aaa28-80-H60K-hIgG1-Fc) (human); assay: as above
Description: as §1, §2

[6] = molecular target: TPP-1990 (hTNFRSF12Aaa28-80-L65Q-hIgG1-Fc) (human); assay: as above
Description: as §1, §2

[7] = molecular target: T1, TWEAKR (TNFRSF12A, FN14), human, on tumor cell lines (human, UniProt Q9NP84 28-129); assay: FACS, NCI-H322 cells, 10 ug/ml
T1 construct: endogenous receptor on human cancer cell lines; also called TWEAK receptor; CD266
Description: (§3) To determine the binding characteristics of the anti-TWEAKR antibodies on mouse and human cancer cell lines, binding was tested by flow cytometry to a panel of cell lines. […] Cells were suspended at approximately 10⁵ cells/well in FACS buffer (PBS without Ca/Mg, containing 3% FCS, Biochrom). Cells were centrifuged (250 g, 5 min, 4° C.) and supernatant discarded. Cells were resuspended in dilutions of the antibodies of interest (10 μg/ml in 80 μl if not indicated otherwise) in FACS buffer, and incubated on ice for 1 h. […] After incubation for 1 h on ice cells were again washed with cold FACS buffer, resuspended in 1000 FACS buffer and analyzed by flow cytometry using a FACS-Array (BD Biosciences). Results are calculated as Geo Mean of fluorescence detected by the antibody of interest subtracted by background fluorescence as measured by detection with the secondary antibody alone. Values are scored according to the following system: Geo Mean−Geo Mean of secondary antibody alone >10: +, >100: ++, >1000: +++, 10000: ++++, close to category border in ( ).

[8] = molecular target: T1, TWEAKR (TNFRSF12A, FN14), human, on …; assay: FACS, SKOV-3 cells, 10 ug/ml
Description: as §3

[9] = molecular target: T1, TWEAKR (TNFRSF12A, FN14), human, on …; assay: FACS, 786-O cells, 10 ug/ml
Description: as §3

[10] = molecular target: T2, TPP-2202 (TWEAKR-ECD-28-80-hIgGFc-His) (human); assay: ELISA, TPP-2202 coated at 1 µg/ml, biotinylated IgG at 0.08 µg/ml (open bar) and 0.3 µg/ml (filled bar), Streptavidin-HRP, Amplex Red
T2 construct: dimeric; also called TWEAKR-Fc fusion protein; full ectodomain 28-80
Description: Detection was done with Streptavidin-HRP and Amplex-Red substrate.
To analyze for binding, 1 μg/ml of the respective dimeric TWEAKR-Fc construct were coated and, 0.3 μg/ml and 0.08 μg/ml of biotinylated IgG were used as soluble binding partner. Detection was done with Streptavidin-HRP and Amplex-Red substrate.

[11] = molecular target: T1, TWEAKR (TNFRSF12A, FN14), human, on …; assay: cell-based or functional assay
[12] = molecular target: T3, TPP-2305 (hTNFRSF12Aaa28-80) (Human, UniProt Q9NP84 28-80); assay: SPR (Biacore T100), IgG captured, TPP-2305 injected, 1:1 model
T3 construct: monomeric extracellular domain, bought; also called purified recombinant human TWEAKR protein; soluble monomeric TWEAKR
Description: Binding affinities of anti-TWEAKR antibodies were determined by surface plasmon resonance analysis on a Biacore T100 instrument (GE Healthcare Biacore, Inc.). Antibodies were immobilized onto a CM5 sensor chip through an indirect capturing reagent, anti-human IgG(Fc). […] Anti-TWEAKR antibodies were injected at a concentration of 10 μg/ml at 10 μl/min for 10 sec.
Sensorgrams were generated after in-line reference cell correction followed by buffer sample subtraction. The dissociation equilibrium constant (KD) was calculated based on the ratio of association (kₒₙ) and dissociation rated (koff) constants, obtained by fitting sensorgrams with a first order 1:1 binding model.

[13] = molecular target: T1, TWEAKR (TNFRSF12A, FN14), human, on …; assay: FACS, A375 cells, 10 ug/ml
Description: as §3

[14] = molecular target: T1, TWEAKR (TNFRSF12A, FN14), human, on …; assay: FACS, WiDr cells, 10 ug/ml
Description: as §3

[15] = molecular target: T1, TWEAKR (TNFRSF12A, FN14), human, on …; assay: cell-based or functional assay; remark: listed apart in the source
[16] = molecular target: T1, TWEAKR (TNFRSF12A, FN14), human, on …; assay: FACS, HT29 cells, 10 ug/ml
Description: as §3

[17] = molecular target: T4, TPP-2607 (TweakR-ECD-34-68-hIgGFc-His-S37A) (human); assay: ELISA, IgG coated 1 ug/ml, HEK293 supernatant titrated
T4 construct: used as HEK293 supernatant
Description: (§4) These TWEAKR(34-68)-Fc muteins were expressed in HEK293 cells. To collect dose-response data, IgGs were coated at a concentration of 1 μg/ml in a 384-well Maxisorp ELISA plate and a serial 2fold dilution of the TWEAKR mutein containing supernatant was used as soluble binding partner. Detection was done with anti-HIS-HRP and Amplex Red.

[18] = molecular target: T5, TPP-2613 (TweakR-ECD-34-68-hIgGFc-His-D45A) (human); assay: as above
T5 construct: used as HEK293 supernatant
Description: as §4

[19] = molecular target: T6, TPP-2619 (TweakR-ECD-34-68-hIgGFc-His-R58A) (human); assay: as above
T6 construct: used as HEK293 supernatant
Description: as §4

[20] = molecular target: T7, TPP-2620 (TweakR-ECD-34-68-hIgGFc-His-P59A) (human); assay: as above
T7 construct: used as HEK293 supernatant
Description: as §4

[21] = molecular target: T8, TPP-2615 (TweakR-ECD-34-68-hIgGFc-His-K48A) (human); assay: as above
T8 construct: used as HEK293 supernatant
Description: as §4

[22] = molecular target: T9, TPP-2621 (TweakR-ECD-34-68-hIgGFc-His-H60A) (human); assay: as above
T9 construct: used as HEK293 supernatant
Description: as §4

[23] = molecular target: T10, TPP-2617 (TweakR-ECD-34-68-hIgGFc-His-S54A) (human); assay: as above
T10 construct: used as HEK293 supernatant
Description: as §4

[24] = molecular target: T11, TPP-2608 (TweakR-ECD-34-68-hIgGFc-His-R38A) (human); assay: as above
T11 construct: used as HEK293 supernatant
Description: as §4

[25] = molecular target: T12, TPP-2625 (TweakR-ECD-34-68-hIgGFc-His-L65A) (human); assay: as above
T12 construct: used as HEK293 supernatant
Description: as §4

[26] = molecular target: T13, TPP-2609 (TweakR-ECD-34-68-hIgGFc-His-S40A) (human); assay: as above
T13 construct: used as HEK293 supernatant
Description: as §4

T2 sequence (chain, as listed by the source limits assumed): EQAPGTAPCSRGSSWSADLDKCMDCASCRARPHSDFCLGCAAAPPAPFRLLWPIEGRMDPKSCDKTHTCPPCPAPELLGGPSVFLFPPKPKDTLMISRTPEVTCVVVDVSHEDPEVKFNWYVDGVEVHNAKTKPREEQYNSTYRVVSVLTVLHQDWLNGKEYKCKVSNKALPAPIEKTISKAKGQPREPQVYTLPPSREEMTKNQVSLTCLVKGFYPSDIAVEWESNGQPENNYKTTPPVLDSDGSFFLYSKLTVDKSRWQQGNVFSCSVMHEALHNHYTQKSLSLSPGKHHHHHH

binding result [1]	binding result [2]	binding result [3]	binding result [4]	binding result [5]	binding result [6]	GeoMean of Fluorescence minus GeoMean with the secondary antibody only [7]	GeoMean of Fluorescence minus GeoMean with the secondary antibody only [8]	GeoMean of Fluorescence minus GeoMean with the secondary antibody only [9]	binding result [10]	IL-8 release from A375 cells at 100 ug/ml, % of the activation by 300 ng/ml TWEAK ligand [11] [%]	Kd [12] [nM]	GeoMean of Fluorescence minus GeoMean with the secondary antibody only [13]	GeoMean of Fluorescence minus GeoMean with the secondary antibody only [14]	% Inhibition of proliferation, 786-O cells, 96h, 100 ug/ml [15] [%]	% Inhibition of proliferation, A253 cells, 72h, 100 ug/ml [15] [%]	% Inhibition of proliferation, HT-29 cells, 24h, 100 ug/ml [15] [%]	GeoMean of Fluorescence minus GeoMean with the secondary antibody only [16]	Binder	also measured
binds	binds	binds	binds	binds	binds	291	2870	20300	binds	103	12.4	561	2420	71	99	> 100	1420	TPP-2090 (antibody, human IgG1, kappa, V domains shown, Human IgG1) VH: EVQLLESGGGLVQPGGSLRLSCAASGFTFSPYPMIWVRQAPGKGLEWVSYISPSGGSTHYADSVKGRFTISRDNSKNTLYLQMNSLRAEDTAVYYCARGGDTYFDYFDYWGQGTLVTVSS VL: DIQMTQSPSSLSASVGDRVTITCRASQSISGYLNWYQQKPGKAPKLLIYQASSLQSGVPSRFSGSGSGTDFTLTISSLQPEDFATYYCQQSYTSPFITFGQGTKVEIKR	
binds	binds	binds	binds	binds	binds	978	5970	30200	binds	29	2.3	1580	5920	29	37	-10	3670	P4A8(TPP-1324) (antibody, human IgG1, kappa, V domains shown, Human IgG1; variable domains from WO2009/140177 with constant region added) VH: QVQLVQSGAEVKKPGASVKVSCKGSGYTFTDYGMHWVRQAPGQGLEWMGVISTYNGYTNYNQKFKGRVTMTVDKSTSTAYMELRSLRSDDTAVYYCARAYYGNLYYAMDYWGQGTLVTVSS VL: DIVLTQSPASLAVSLGQRATISCRASKSVSTSSYSYMHWYQQKPGQPPKLLIKYASNLESGVPARFSGSGSGTDFSLNIHPMEEDDTAMYFCQHSRELPFTFGGGTKLEIKR	koff [12]: 0.0027 s⁻¹; kon [12]: 1.2e+06 M⁻¹ s⁻¹; binding result [17]: no binding; binding result [18]: no binding; binding result [19]: no binding; binding result [20]: no binding; binding result [21]: no binding; binding result [22]: no binding; binding result [23]: no binding; binding result [24]: no binding; binding result [25]: no binding; binding result [26]: no binding; % Inhibition of proliferation, WiDr cells, 96h, 100 ug/ml [15]: 4%
